# Reference: the nanobody polyreactivity screen of Harvey et al. (2022)
# Assay: yeast display, Sf9 membrane polyspecificity reagent, FACS + sequencing; frameworks hold sequencing errors
# How it was run: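 Synthetic nanobody libraries on Saccharomyces cerevisiae BJ5465 were galactose-induced for 36–48 hours, stained 1 hour at 4 °C with 10% biotinylated, detergent-solubilized Sf9 membrane reagent and enriched on streptavidin microbeads. FACS then separated cells into low and high (top ~1%) gates by anti-HA (expression) and streptavidin (reagent binding) fluorescence. Genes were colony-PCR amplified, MiSeq 2 × 250 sequenced and CDR-length filtered. A clone's polyreactivity label is that of its gate of origin.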
row,Sequence,polyreactivity (PSR sort gate)
1,QVQLVESGGGLVQAGGSLRLSCAASGFIFYRYAMGWYRQAPGNERELVAAISSGGSTYYADSVKGRFTISRDNAKNTVYLQMNSLKPEDTAVYYCNAYHNYWRYRTDEMNYWGQGTQVTVSS,high polyreactivity
2,QVQLVESGGGLVQAGGSLRLSCAASGFIFYRYARGWYRQAPGQERELVAAITTSGARTYYADSVKGRFTISRDNAKNTVYLLMNSLKPEDTAGYSCAASPTPRVKMDYWGQGTQVTVSS,low polyreactivity
3,QVQLVESGGGLVQAGGSLRLSCAASGFIFYSNAMGWYRQAPGKERELVAAISRRGGSTYYADSVKGRFTISRDNAKNTVYLQMNSLKPEDTAVYYCAARVVSGFDSWGQGTQVTVSS,high polyreactivity
4,QVQLVESGGGLVQAGGSLRLSCAASGFIFYSNAMGWYRQAPGKERELVATITGDGGTTYYADSVKGRFTISRDNAKNTVYLQMNSLKPEDTAVYYCAKDYIYRGYYTDFRYEDYDYWGQGTQVTVSS,low polyreactivity
5,QVQLVESGGGLVQAGGSLRLSCAASGFIFYSYAMGWYRQAPGKERELVAAIDWDDGTTYYADSVKGRFTISRDNAKNTVYLQMNSLKPEDTAVYYCAAESYYGAYDYWGQGTQVTVSS,high polyreactivity
6,QVQLVESGGGLVQAGGSLRLSCAASGFIFYSYAMGWYRQAPGKERELVAAISTSGGSTYYADSVKGRFTISRDNAKNTVYLQMNSLKPEDTAVYYCNARGTRASRYDYWGQGTQVTVSS,high polyreactivity
7,QVQLVESGGGLVQAGGSLRLSCAASGFIFYSYAMGWYRQAPGKERELVAAISWSGGRTYYADSVKGRFTISRDNAKNTVYLQMNSLKPEDTAVYYCNADDYSFSFTVPYYIEYDYWGQGTQVTVSS,high polyreactivity
8,QVQLVESGGGLVQAGGSLRLSCAASGFIFYSYGMGWYRQAPGKERELVASITSSGTRTYYADSVKGRFTISRDNAKHTVYLQMNSLKPEDTAVYYCAASRFYYGIAYYRYDYWGQGTHVTVSS,high polyreactivity
9,QVQLVESGGGLVQAGGSLRLSCAASGFIFYTKAMGWSRQAPGKERELVATITTSGGRTYYADSVKGRFTISRDNAKNYVYLQMYSMKPEDTAFYYSATRYVVIEYDYWGQGTQVTVSS,low polyreactivity
10,QVQLVESGGGLVQAGGSLRLSCAASGFIFYVNAMGWYREAPGNERQLVAAISLIGGSTYYADSVKGRFTISRDNAKNTVYLQMNSLIPEDTAVYYCAADPFPGVYDDAIIDYDYWGQGTQVTVSS,low polyreactivity
11,QVQLVESGGGLVQAGGSLRLSCAASGFIFYVYAMGWYRQARGKERELVAAISGGGDSTYYADSVKGRFTISRDNAKNTVYLQMNSLKPEHTAVYYCAAEPWANTPGEAGSPFDYWGQGTQVTVSS,low polyreactivity
12,QVQLVESGGGLVQAGGSLRLSCAASGFIFYYNAMGWDRQAPGKERELVAAIDSGGRTNYADSVKGRFTISRDNAKNTVYLQMNSLKPEDTAVYYCATDPYQPYEGDYWGQGTQVTVSS,low polyreactivity
13,QVQLVESGGGLVQAGGSLRLSCAASGFIFYYNAMGWYRQAPGKERELVAAIDSGGRTNYADSVKGRFTISRDNAKNTVYLQMNSLKPEDTAVYYCAADVITYATYGTRKFQRYGYWGQGTQVTVSS,low polyreactivity
14,QVQLVESGGGLVQAGGSLRLSCAASGFIFYYNAMGWYRQAPGKERELVAGISRSAGSTYYADSVKGRFTISRDNAKNTVYLQMNSLKPEDTAVYYCAALYLSYITGTSYYWGQGTQVTVSS,low polyreactivity
15,QVQLVESGGGLVQAGGSLRLSCAASGFIFYYNAMGWYRQAPGKERELVATIRGSGGSTYYADSVKGRFTISRDTAKNTVYLHMNSLKPEDTAVYYCATTIYGLTSRLYYWGQGTQVTVSS,high polyreactivity
16,QVQLVESGGGLVQAGGSLRLSCAASGFIFYYYAMGWYRPAPGKERELVAAISVRGGRTYYADSVKGRFTISRDNAKNTVYLQMNSLKPEDTAVYYCAADLYNRGRGSSQSYRTGYDYWGQGTQVTVSS,high polyreactivity
17,QVQLVESGGGLVQAGGSLRLSCAASGFIFYYYAMGWYRQAPGKERELVAGIDKTGGSTYYADSVKGRFTISRDNAKNPVYLQMNSLKPDDTAVYYCNAPYYRGGKDGYWGQGTQVTVSS,high polyreactivity
18,QVQLVESGGGLVQAGGSLRLSCAASGFIFYYYDMGWYRQAPGKERELVAAISTGGSTYYADSVKGRFTISRDNAKNTVYLQMNSLKPEDTAVYYCAADSYWSPYDYWGQGTQVTVSS,high polyreactivity
19,QVQLVESGGGLVQAGGSLRLSCAASGFIIAPNAMGWYRQAPGKDRELVAAISGGGSTYYADSVKGRFTISRDNAKNTVYLQMNSLKPEDTAVYYCAVAGRRGDEYDYWGQGTQVTVSS,low polyreactivity
20,QVQLVESGGGLVQAGGSLRLSCAASGFIIARNTMGWYRQAPAKERELVAAISSSGGSTYYADSVKGRFTISRDNAKNTFYLQMNCLKPEDTAVYYCNKGYTGLYGYDYWGQGTHVTVSS,high polyreactivity
21,QVQLVESGGGLVQAGGSLRLSCAASGFIIGDYAMGWYRQAPGKERELVAAITISGGGTYYADSVKGRFTISRDNAKNTVYLQMNSLKPEDTAVYYCAAGYYDLNLDTDFGFDYWGQGTQVTVSS,low polyreactivity
22,QVQLVESGGGLVQAGGSLRLSCAASGFIIGLYAMGWYRQAPGKERELVAAISGSGGSTYYADSVKGRFTISRDNAKNTVYLQMNSLKPEDTAVYYCNGAHGVHTYVYRYCYWGQGTQVTVSS,low polyreactivity
23,QVQLVESGGGLVQAGGSLRLSCAASGFIIGSYAMGWYRQAPGKERELVAAISRRTTNTYYADSVKGRFTISRDNAKNTVYLQMNSLKPEDTAVYYCARVTWYESDYWGQGTQVTVSS,high polyreactivity
24,QVQLVESGGGLVQAGGSLRLSCAASGFIIGSYTMGWNRQAPRKERELVASITKRGGSTYYADSVKGRFTISRDNAKNTVYLQMNSLKPEDTEVYYCAATYLFSHRSRYDYWGQGTQVTVSS,high polyreactivity
25,QVQLVESGGGLVQAGGSLRLSCAASGFIIIGYVMGWYRQSPGKERELVAAITSSVGSTYYADSVKGRFTISRDNAKNPVYLQMNSLKPEDTAVYYCAAEYYLLWSGMEYWGEGTQVTVSS,low polyreactivity
26,QVQLVESGGGLVQAGGSLRLSCAASGFIILINVMGWYRQAPGKERELVAVITGGGTTNYADSVKGRFTFSRDNAKNTVYLQMNSLKPEDTAVYYCAVDAGAGDNDYWGQGTQVTVSS,low polyreactivity
27,QVQLVESGGGLVQAGGSLRLSCAASGFIIRKYAMGWYRPAPGKEWELVAAISGRADSTYYADSVKGRFTISRDNAKNTVYLQMNSLKPDDTAVYYCAAYWHSKIGKGYDYWGQGTQVTVSS,high polyreactivity
28,QVQLVESGGGLVQAGGSLRLSCAASGFIISVYAMGWYRQAPGKERELVARIDSGGSTYYADSVKGRFTISRDNAKNTVYLQMNSLKPEDTAVYYCATDEGTVGGQQLRPLMDYWGQGTQVTVSS,low polyreactivity
29,QVQLVESGGGLVQAGGSLRLSCAASGFIITGNAMGWYRKAPGKERELVAAITSGGNTYYADSVKGRFTISRDNAKNTVYLQMNSLKPEDTAVYYCAKYVPHWRILMEYWGQGTQVTVSS,low polyreactivity
30,QVQLVESGGGLVQAGGSLRLSCAASGFIITQSAMGWYRQAPGTERELVAAISGNGGRTYYADSVKGRFTISRDNAKNTVYLQMNSLKPEDTAVYYCAVTRPGRRYPFCYDYWGQGTQVTVSS,low polyreactivity
